From doi:10.1101/2022.09.05.506423 (bioRxiv, 2022)

T1: fibrinogen Bβ chain (human) (human, UniProt P02675 31-491, N-linked glycan at N364)
T1 sequence (looked up): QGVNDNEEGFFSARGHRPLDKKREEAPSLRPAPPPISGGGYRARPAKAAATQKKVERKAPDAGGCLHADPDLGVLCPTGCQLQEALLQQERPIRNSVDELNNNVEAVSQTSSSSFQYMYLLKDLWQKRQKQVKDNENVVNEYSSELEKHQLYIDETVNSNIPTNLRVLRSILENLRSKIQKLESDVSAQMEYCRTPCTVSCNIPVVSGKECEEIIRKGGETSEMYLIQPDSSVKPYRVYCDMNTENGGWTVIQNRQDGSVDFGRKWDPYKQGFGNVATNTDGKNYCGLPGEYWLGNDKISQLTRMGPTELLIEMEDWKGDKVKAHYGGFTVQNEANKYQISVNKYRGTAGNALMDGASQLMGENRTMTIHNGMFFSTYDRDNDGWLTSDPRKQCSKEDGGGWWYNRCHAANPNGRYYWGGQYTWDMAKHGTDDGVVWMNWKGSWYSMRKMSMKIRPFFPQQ

B1: fibrinogen γ chain, γ-A isoform (human) (natural protein, UniProt P02679-2 27-437, looked up)
chain: YVATRDNCCILDERFGSYCPTTCGIADFLSTYQTKVDKDLQSLEDILHQVENKTSEVKQLIKAIQLTYNPDESSKPNMIDAATLKSRKMLEEIMKYEASILTHDSSIRYLQEIYNSNNQKIVNLKEKVAQLEAQCQEPCKDTVQIHDITGKDCQDIANKGAKQSGLYFIKPLKANQQFLVYCEIDGSGNGWTVFQKRLDGSVDFKKNWIQYKEGFGHLSPTGTTEFWLGNEKIHLISTQSAIPYALRVELEDWNGRTSTADYAMFKVGPEADKYRLTYAYFAGGDAGDAFDGFDFGDDPSDKFFTSHNGMQFSTWDNDNDKFEGNCAEQDGSGWWMNKCHAGHLNGVYYQGGTYSKASTPNGYDNGIIWATWKTRWYSMKKTTMKIIPFNRLTIGEGQQHHLGGAKQAGDV
modifications: N-linked glycan at N52

How the values were obtained:
[1] = molecular target: AαBβγ half-molecule of human fibrinogen (human) (UniProt P02671); test: SEC
[2] = molecular target: T1, fibrinogen Bβ chain (human); test: SEC

Row | Molecule | stoichiometry N [1] | binding result [2]
1 | AαBβγ half-molecule of human fibrinogen (from UniProt P02671-2 20-644; P02675 31-491; P02679-2 27-437) (complex) | 2 | 
2 | B1 |  | binds
